Assays:
Experiment in all cases: cell-based or functional assay
hGLP-1R = hGLP-1R (Homo sapiens, UniProt P43220)
[1] = target: human glucagon receptor (human) (UniProt P47871)
[2] = target: T1, human GIP receptor (human) (UniProt P48546)
T1 sequence (looked up): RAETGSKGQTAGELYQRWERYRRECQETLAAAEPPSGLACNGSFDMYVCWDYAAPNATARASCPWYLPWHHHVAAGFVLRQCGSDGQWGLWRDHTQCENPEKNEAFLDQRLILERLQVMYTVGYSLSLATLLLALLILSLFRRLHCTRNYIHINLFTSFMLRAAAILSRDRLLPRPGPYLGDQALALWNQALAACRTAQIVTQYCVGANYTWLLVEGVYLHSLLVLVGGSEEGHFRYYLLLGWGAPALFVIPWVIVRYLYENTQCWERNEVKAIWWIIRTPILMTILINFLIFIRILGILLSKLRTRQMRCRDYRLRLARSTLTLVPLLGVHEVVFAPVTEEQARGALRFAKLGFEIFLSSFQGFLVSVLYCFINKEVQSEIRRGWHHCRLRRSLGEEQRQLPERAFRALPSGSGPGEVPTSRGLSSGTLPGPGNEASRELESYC

Chain of human glucagon receptor (human) (P47871 26-477): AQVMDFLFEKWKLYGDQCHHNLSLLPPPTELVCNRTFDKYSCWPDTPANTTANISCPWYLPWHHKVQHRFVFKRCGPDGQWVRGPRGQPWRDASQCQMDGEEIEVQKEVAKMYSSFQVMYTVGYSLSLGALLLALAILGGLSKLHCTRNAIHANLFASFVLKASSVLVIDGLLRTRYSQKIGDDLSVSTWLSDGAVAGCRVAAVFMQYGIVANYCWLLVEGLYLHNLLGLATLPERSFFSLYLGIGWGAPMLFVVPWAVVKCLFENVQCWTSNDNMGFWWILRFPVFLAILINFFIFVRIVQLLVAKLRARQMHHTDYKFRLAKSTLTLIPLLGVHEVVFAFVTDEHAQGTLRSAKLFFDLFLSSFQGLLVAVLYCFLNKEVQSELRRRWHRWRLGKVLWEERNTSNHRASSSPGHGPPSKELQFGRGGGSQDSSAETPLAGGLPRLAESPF
Chain of hGLP-1R (P43220 24-463): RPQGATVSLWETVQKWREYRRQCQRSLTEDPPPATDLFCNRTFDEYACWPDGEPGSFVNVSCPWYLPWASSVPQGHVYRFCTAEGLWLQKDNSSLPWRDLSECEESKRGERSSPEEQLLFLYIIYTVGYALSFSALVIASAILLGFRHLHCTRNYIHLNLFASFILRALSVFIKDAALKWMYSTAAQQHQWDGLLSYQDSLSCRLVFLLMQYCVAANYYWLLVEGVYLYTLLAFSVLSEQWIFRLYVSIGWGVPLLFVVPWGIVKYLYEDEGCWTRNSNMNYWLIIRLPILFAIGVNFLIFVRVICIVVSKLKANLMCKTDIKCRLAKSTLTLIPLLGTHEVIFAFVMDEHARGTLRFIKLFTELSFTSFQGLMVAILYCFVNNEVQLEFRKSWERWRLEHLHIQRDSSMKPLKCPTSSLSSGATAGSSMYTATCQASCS

B1: Example 790 (peptide)
chain: YXQGTFTSDFSQXLDKKAQXAFIEYLLEXGESSGEPPPSGE
modifications: synthetic construct; SITE 2: note = 2-Aminoisobutyric Acid; SITE 13: note = alpha-methyl-leucine; SITE 17: note = Lysine is chemically modified through conjugation of the epsilon-amino group of the Lysine side chain with (2-[2-(2-Amino-ethoxy)-ethoxy]-acetyl)-(gamma-Glu)-CO-(CH2) 16-CO2H; SITE 20: n
hGLP-1R
  Relative cAMP EC50: 3.19 nM
  cAMP Rel EC50, nM (1% HSA): 858 nM
[1]
  Relative cAMP EC50: 3.87 nM
  cAMP Rel EC50, nM (1% HSA): 1200 nM
[2]
  Relative cAMP EC50: 0.131 nM
  cAMP Rel EC50, nM (1% HSA): 34.1 nM

B2: Example 763 (peptide)
chain: YXQGTXTSDXXIXLDXKAQXEFIEXLIEGGPSSGEPPPEGTGE
modifications: synthetic construct; SITE 2: note = 2-Aminoisobutyric Acid; SITE 6: note = alpha-methyl-2-fluoro-L-phenylalanine; SITE 10: note = 3-(4-Pyridyl)-L-alanine; SITE 11: note = alpha-methyl-L-serine; SITE 13: note = alpha-methyl-leucine; SITE 16: note = L-ornithine; SITE 17: note = Lysine is chemically mo
hGLP-1R
  Relative cAMP EC50: 0.302 nM
  cAMP Rel EC50, nM (1% HSA): 42.5 nM
[1]
  Relative cAMP EC50: 1.57 nM
  cAMP Rel EC50, nM (1% HSA): 222 nM
[2]
  Relative cAMP EC50: 0.00719 nM
  cAMP Rel EC50, nM (1% HSA): 1.16 nM

B3: Example 801 (peptide)
chain: YXQGTFTSDXSKXLDKKAQXAFIEYLIEXGPSSGAPPPSGS
modifications: synthetic construct; SITE 2: note = 2-Aminoisobutyric Acid; SITE 10: note = 3-(4-Pyridyl)-L-alanine; SITE 13: note = alpha-methyl-leucine; SITE 17: note = Lysine is chemically modified through conjugation of the epsilon-amino group of the Lysine side chain with (2-[2-(2-Amino-ethoxy)-ethoxy]-acetyl)
hGLP-1R
  Relative cAMP EC50: 0.938 nM
  cAMP Rel EC50 (1% HSA): 133 nM
[1]
  Relative cAMP EC50: 5.51 nM
  cAMP Rel EC50 (1% HSA): 1200 nM
[2]
  Relative cAMP EC50: 0.147 nM
  cAMP Rel EC50 (1% HSA): 18.1 nM

B4: Example 72 (peptide)
chain: YXQGTFTSDFSXXLDKKAQXAFIEYLLEAGPSSGAPPPSEG
modifications: not fully specified; synthetic construct; SITE 2: note = 2-Aminoisobutyric Acid; SITE 12: note = L-ornithine; SITE 13: note = alpha-methyl-leucine; SITE 17: note = Lysine is chemically modified through conjugation of the epsilon-amino group of the Lysine side chain with (2-[2-(2-Amino-ethoxy)-ethoxy]-acetyl)2-(gamma-Glu)
hGLP-1R
  Relative cAMP EC50: 1.86 nM
  cAMP Rel EC50, nM (in the presence of 1% HSA): 683 nM
[1]
  Relative cAMP EC50: 5.48 nM
  cAMP Rel EC50, nM (in the presence of 1% HSA): 1910 nM
[2]
  Relative cAMP EC50: 0.202 nM
  cAMP Rel EC50, nM (in the presence of 1% HSA): 56.7 nM

B5: Example 777 (peptide)
chain: YXQGTFTSDFSQXLDKKAQXAFIEYLLEAGPSSGAPPPSGX
modifications: synthetic construct; SITE 2: note = 2-Aminoisobutyric Acid; SITE 13: note = alpha-methyl-leucine; SITE 17: note = Lysine is chemically modified through conjugation of the epsilon-amino group of the Lysine side chain with (2-[2-(2-Amino-ethoxy)-ethoxy]-acetyl)-(gamma-Glu)-CO-(CH2) 16-CO2H; SITE 20: n
hGLP-1R
  Relative cAMP EC50: 0.913 nM
  cAMP Rel EC50, nM (1% HSA): 231 nM
[1]
  Relative cAMP EC50: 3.89 nM
  cAMP Rel EC50, nM (1% HSA): 1320 nM
[2]
  Relative cAMP EC50: 0.113 nM
  cAMP Rel EC50, nM (1% HSA): 22.2 nM

B6: Example 779 (peptide)
chain: YXQGTFTSDFSQXLDKKAQXAFIEYLLEAGPSSXAPPPSGT
modifications: synthetic construct; SITE 2: note = 2-Aminoisobutyric Acid; SITE 13: note = alpha-methyl-leucine; SITE 17: note = Lysine is chemically modified through conjugation of the epsilon-amino group of the Lysine side chain with (2-[2-(2-Amino-ethoxy)-ethoxy]-acetyl)-(gamma-Glu)-CO-(CH2) 16-CO2H; SITE 20: n
hGLP-1R
  Relative cAMP EC50: 0.949 nM
  cAMP Rel EC50, nM (1% HSA): 175 nM
[1]
  Relative cAMP EC50: 4.58 nM
  cAMP Rel EC50, nM (1% HSA): 1020 nM
[2]
  Relative cAMP EC50: 0.112 nM
  cAMP Rel EC50, nM (1% HSA): 19.3 nM

B7: Example 796 (peptide)
chain: YXQGTFTSDFSXXLDKKAQXAFIEYLIEXGPSSGAPPPSGS
modifications: synthetic construct; SITE 2: note = 2-Aminoisobutyric Acid; SITE 12: note = L-ornithine; SITE 13: note = alpha-methyl-leucine; SITE 17: note = Lysine is chemically modified through conjugation of the epsilon-amino group of the Lysine side chain with (2-[2-(2-Amino-ethoxy)-ethoxy]-acetyl)-(gamma-Glu)
hGLP-1R
  Relative cAMP EC50: 0.602 nM
  cAMP Rel EC50, nM (1% HSA): 125 nM
[1]
  Relative cAMP EC50: 5.3 nM
  cAMP Rel EC50, nM (1% HSA): 1000 nM
[2]
  Relative cAMP EC50: 0.098 nM
  cAMP Rel EC50, nM (1% HSA): 17.5 nM

B8: Example 789 (peptide)
chain: YXQGTFTSDFSQXLDKKAQXAFIEYLLEXGESSGAPPPSGE
modifications: synthetic construct; SITE 2: note = 2-Aminoisobutyric Acid; SITE 13: note = alpha-methyl-leucine; SITE 17: note = Lysine is chemically modified through conjugation of the epsilon-amino group of the Lysine side chain with (2-[2-(2-Amino-ethoxy)-ethoxy]-acetyl)-(gamma-Glu)-CO-(CH2) 16-CO2H; SITE 20: n
hGLP-1R
  Relative cAMP EC50: 2.74 nM
  cAMP Rel EC50, nM (1% HSA): 379 nM
[1]
  Relative cAMP EC50: 3.3 nM
  cAMP Rel EC50, nM (1% HSA): 1200 nM
[2]
  Relative cAMP EC50: 0.101 nM
  cAMP Rel EC50, nM (1% HSA): 20.4 nM

B9: Example 770 (peptide)
chain: YXQGTFTSDFSXXLDKKAQXAFIEYLLEGGPSSXAPPPGGS
modifications: not fully specified; synthetic construct; SITE 2: note = 2-Aminoisobutyric Acid; SITE 12: note = L-ornithine; SITE 13: note = alpha-methyl-leucine; SITE 17: note = Lysine is chemically modified through conjugation of the epsilon-amino group of the Lysine side chain with (gamma-Glu)2-CO-(CH2)16-CO2H; SITE 20: note = 2-Am
hGLP-1R
  Relative cAMP EC50: 3.91 nM
  cAMP Rel EC50, nM (1% HSA): 240 nM
[1]
  Relative cAMP EC50: 5.37 nM
  cAMP Rel EC50, nM (1% HSA): 390 nM
[2]
  Relative cAMP EC50: 0.244 nM
  cAMP Rel EC50, nM (1% HSA): 18.2 nM

B10: Example 799 (peptide)
chain: YXQGTFTSDFSXXLDKKAQXAFIEYLIEXGPSSGAPPPSGS
modifications: synthetic construct; SITE 2: note = 2-Aminoisobutyric Acid; SITE 12: note = (S)-2,4-diaminobutanoic acid; SITE 13: note = alpha-methyl-leucine; SITE 17: note = Lysine is chemically modified through conjugation of the epsilon-amino group of the Lysine side chain with (2-[2-(2-Amino-ethoxy)-ethoxy]-ac)
hGLP-1R
  Relative cAMP EC50: 0.462 nM
  cAMP Rel EC50 (1% HSA): 179 nM
[1]
  Relative cAMP EC50: 1.64 nM
  cAMP Rel EC50 (1% HSA): 574 nM
[2]
  Relative cAMP EC50: 0.0668 nM
  cAMP Rel EC50 (1% HSA): 18.4 nM

B11: Example 782 (peptide)
chain: YXQGTFTSDFSQXLDKKAQXAFIEYLLEXGPSSGAPPPSGX
modifications: synthetic construct; SITE 2: note = 2-Aminoisobutyric Acid; SITE 13: note = alpha-methyl-leucine; SITE 17: note = Lysine is chemically modified through conjugation of the epsilon-amino group of the Lysine side chain with (2-[2-(2-Amino-ethoxy)-ethoxy]-acetyl)-(gamma-Glu)-CO-(CH2) 16-CO2H; SITE 20: n
hGLP-1R
  Relative cAMP EC50: 1.94 nM
  cAMP Rel EC50, nM (1% HSA): 354 nM
[1]
  Relative cAMP EC50: 4.96 nM
  cAMP Rel EC50, nM (1% HSA): 1380 nM
[2]
  Relative cAMP EC50: 0.0711 nM
  cAMP Rel EC50, nM (1% HSA): 15.5 nM

B12: Example 775 (peptide)
chain: YXQGTFTSDFSQXLDKKAQXAFIEYLLEAGPSSGAPPPSGS
modifications: synthetic construct; SITE 2: note = 2-Aminoisobutyric Acid; SITE 13: note = alpha-methyl-leucine; SITE 17: note = Lysine is chemically modified through conjugation of the epsilon-amino group of the Lysine side chain with (2-[2-(2-Amino-ethoxy)-ethoxy]-acetyl)-(gamma-Glu)-CO-(CH2) 16-CO2H; SITE 20: n
hGLP-1R
  Relative cAMP EC50: 0.993 nM
  cAMP Rel EC50, nM (1% HSA): 202 nM
[1]
  Relative cAMP EC50: 4.36 nM
  cAMP Rel EC50, nM (1% HSA): 724 nM
[2]
  Relative cAMP EC50: 0.105 nM
  cAMP Rel EC50, nM (1% HSA): 25.8 nM

B13: Example 76 (peptide)
chain: YXQGTFTSDFSXXLDKKAQXAFIEYLLAGGPSSGAPPPSGS
modifications: synthetic construct; SITE 2: note = 2-Aminoisobutyric Acid; SITE 12: note = L-ornithine; SITE 13: note = alpha-methyl-leucine; SITE 17: note = Lysine is chemically modified through conjugation of the epsilon-amino group of the Lysine side chain with (2-[2-(2-Amino-ethoxy)-ethoxy]-acetyl)-(gamma-Glu)
hGLP-1R
  Relative cAMP EC50: 2.25 nM
  cAMP Rel EC50, nM (in the presence of 1% HSA): 436 nM
[1]
  Relative cAMP EC50: 11.1 nM
  cAMP Rel EC50, nM (in the presence of 1% HSA): 2240 nM
[2]
  Relative cAMP EC50: 0.196 nM
  cAMP Rel EC50, nM (in the presence of 1% HSA): 45.5 nM
